Patent US20160244497A1 (Amgen, published 2016)
Residue numbers refer to the chain shown, from its start. Names may count otherwise. “And” between values parts separate entries of the source, which are not always exact repeats. Identical values can stand only once. Like-named read-outs stand apart in the source and are kept apart here.

Tests used:
Experiment in all cases: cell-based or functional assay
beta-klotho [1] = biological target: beta-klotho
beta-klotho [2] = biological target: beta-klotho; remark: listed apart in the source
beta-klotho [3] = biological target: beta-klotho; remark: listed apart in the source
beta-klotho [4] = biological target: beta-klotho; remark: listed apart in the source

B1: PEGylated FGF21 mutant H125C (ligand)
chain: MHPIPDSSPLLQFGGQVRQRYLYTDDAQQTEAHLEIREDGTVGGAADQSPESLLQLKALKPGVIQILGVKTSRFLCQRPDGALYGSLHFDPEACSFRELLLEDGYNVYQSEAHGLPLHLPGNKSPCRDPAPRGPARFLPLPGLPPAPPEPPGILAPQPPDVGSSDPLSMVGPSQGRSPSYAS
modifications: 20 kDa methoxy-PEG-maleimide on Cys 125
EC50, ELK-luciferase assay (beta-klotho [1]): 4.5 nM

B2: PEGylated FGF21 mutant G120C (ligand)
chain: B1 chain with G121C, C126H
modifications: 20 kDa methoxy-PEG-maleimide on Cys 120
EC50, ELK-luciferase assay (beta-klotho [1]): 6 nM

B3: Tethered Molecule of two FGF21 P171C polypeptides (20 kDa PEG linker) (ligand)
chain: B1 chain with C126H, P172C
modifications: Cys 171 of the two chains joined by one 20 kDa PEG bis-maleimide
EC50, ELK-luciferase assay (beta-klotho [2]): 0.21 nM

B4: N-terminally PEGylated wild-type FGF21 (20 kDa PEG) (ligand)
chain: B1 chain with C126H
modifications: one 20 kDa PEG on the N-terminus (alpha-amino group)
EC50, ELK-luciferase assay (beta-klotho [1]): 36.7 nM and 43.3 nM and 21.5 nM and 40 nM
In Vitro Activity EC50, ELK-luciferase assay (beta-klotho [3]): 43.3 nM
EC50, ELK-luciferase assay (beta-klotho [4]): 37 nM

B5: PEGylated FGF21 mutant E37C (ligand)
chain: B1 chain with E38C, C126H
modifications: 20 kDa methoxy-PEG-maleimide on Cys 37
EC50, ELK-luciferase assay (beta-klotho [1]): 6.9 nM

B6: PEGylated FGF21 mutant R175C (ligand)
chain: B1 chain with C126H, R176C
modifications: 20 kDa methoxy-PEG-maleimide on Cys 175
EC50, ELK-luciferase assay (beta-klotho [1]): 7.9 nM

B7: PEGylated FGF21 mutant E91C (ligand)
chain: B1 chain with E92C, C126H
modifications: 20 kDa methoxy-PEG-maleimide on Cys 91
EC50, ELK-luciferase assay (beta-klotho [1]): 8.3 nM

B8: PEGylated FGF21 mutant N121C (ligand)
chain: B1 chain with N122C, C126H
modifications: 20 kDa methoxy-PEG-maleimide on Cys 121
EC50, ELK-luciferase assay (beta-klotho [1]): 9.2 nM

B9: PEGylated FGF21 mutant R126C (ligand)
chain: B1 chain with C126H, R127C
modifications: 20 kDa methoxy-PEG-maleimide on Cys 126
EC50, ELK-luciferase assay (beta-klotho [1]): 10 nM

B10: PEGylated FGF21 mutant G113C (ligand)
chain: B1 chain with G114C, C126H
modifications: 20 kDa methoxy-PEG-maleimide on Cys 113
EC50, ELK-luciferase assay (beta-klotho [1]): 12 nM

B11: PEGylated FGF21 mutant D38C (ligand)
chain: B1 chain with D39C, C126H
modifications: 20 kDa methoxy-PEG-maleimide on Cys 38
EC50, ELK-luciferase assay (beta-klotho [1]): 13.1 nM

B12: PEGylated FGF21 mutant D79C (ligand)
chain: B1 chain with D80C, C126H
modifications: 20 kDa methoxy-PEG-maleimide on Cys 79
EC50, ELK-luciferase assay (beta-klotho [1]): 20.4 nM

B13: PEGylated FGF21 mutant D46C (ligand)
chain: B1 chain with D47C, C126H
modifications: 20 kDa methoxy-PEG-maleimide on Cys 46
EC50, ELK-luciferase assay (beta-klotho [1]): 27.8 nM

B14: PEGylated FGF21 mutant R77C (ligand)
chain: B1 chain with R78C, C126H
modifications: 20 kDa methoxy-PEG-maleimide on Cys 77
EC50, ELK-luciferase assay (beta-klotho [1]): 4.9 nM

B15: PEGylated FGF21 mutant Y179C (ligand)
chain: B1 chain with C126H, Y180C
modifications: 20 kDa methoxy-PEG-maleimide on Cys 179
EC50, ELK-luciferase assay (beta-klotho [1]): 287 nM

B16: Native FGF21 (random), 2 x 20k PEG (ligand)
chain: B1 chain with C126H
modifications: two 20k PEG at random sites (sites not given)
In Vitro Activity EC50, ELK-luciferase assay (beta-klotho [3]): 200 nM

B17: FGF21(all K to all R, R36K), 2 x 20k PEG (ligand)
chain: B1 chain with R37K, K57R, K60R, K70R, K123R, C126H
modifications: two 20k PEG (amine-specific): N-terminus and Lys 36
In Vitro Activity EC50, ELK-luciferase assay (beta-klotho [3]): 73 nM

B18: FGF21(all K to all R, R77K), 2 x 20k PEG (ligand)
chain: B1 chain with K57R, K60R, K70R, R78K, K123R, C126H
modifications: two 20k PEG (amine-specific): N-terminus and Lys 77
In Vitro Activity EC50, ELK-luciferase assay (beta-klotho [3]): 175 nM

B19: FGF21(K56/59/69R), 2 x 20k PEG (ligand)
chain: B1 chain with K57R, K60R, K70R, C126H
modifications: two 20k PEG (amine-specific): N-terminus and the one remaining lysine (Lys 122)
In Vitro Activity EC50, ELK-luciferase assay (beta-klotho [3]): 500 nM

B20: FGF21(K all R, R126K), 2 x 20k PEG (ligand)
chain: B1 chain with K57R, K60R, K70R, K123R, C126H, R127K
modifications: two 20k PEG (amine-specific): N-terminus and Lys 126
In Vitro Activity EC50, ELK-luciferase assay (beta-klotho [3]): 38 nM

B21: FGF21(K59R/K69R/K122R), 2 x 20k PEG (ligand)
chain: B1 chain with K60R, K70R, K123R, C126H
modifications: two 20k PEG (amine-specific): N-terminus and the one remaining lysine (Lys 56)
In Vitro Activity EC50, ELK-luciferase assay (beta-klotho [3]): 499 nM

B22: FGF21(K56R/K69R/K122R), 2 x 20k PEG (ligand)
chain: B1 chain with K57R, K70R, K123R, C126H
modifications: two 20k PEG (amine-specific): N-terminus and the one remaining lysine (Lys 59)
In Vitro Activity EC50, ELK-luciferase assay (beta-klotho [3]): 215 nM

B23: FGF21(K56R/K59R/K122R), 2 x 20k PEG (ligand)
chain: B1 chain with K57R, K60R, K123R, C126H
modifications: two 20k PEG (amine-specific): N-terminus and the one remaining lysine (Lys 69)
In Vitro Activity EC50, ELK-luciferase assay (beta-klotho [3]): 531 nM

B24: FGF21(all K to all R, R72K), 2 x 20k PEG (ligand)
chain: B1 chain with K57R, K60R, K70R, R73K, K123R, C126H
modifications: two 20k PEG (amine-specific): N-terminus and Lys 72
In Vitro Activity EC50, ELK-luciferase assay (beta-klotho [3]): > 1000 nM

B25: FGF21(all K to all R, R175K), 2 x 20k PEG (ligand)
chain: B1 chain with K57R, K60R, K70R, K123R, C126H, R176K
modifications: two 20k PEG (amine-specific): N-terminus and Lys 175
In Vitro Activity EC50, ELK-luciferase assay (beta-klotho [3]): > 1000 nM

B26: dually PEGylated FGF21 mutant E37C, R77C (ligand)
chain: B1 chain with E38C, R78C, C126H
modifications: 20 kDa methoxy-PEG-maleimide on Cys 37 and on Cys 77
EC50, ELK-luciferase assay (beta-klotho [4]): 21 nM

B27: dually PEGylated FGF21 mutant G120C, H125C (ligand)
chain: B1 chain with G121C
modifications: 20 kDa methoxy-PEG-maleimide on Cys 120 and on Cys 125
EC50, ELK-luciferase assay (beta-klotho [4]): 23 nM

B28: dually PEGylated FGF21 mutant R77C, E91C (ligand)
chain: B1 chain with R78C, E92C, C126H
modifications: 20 kDa methoxy-PEG-maleimide on Cys 77 and on Cys 91
EC50, ELK-luciferase assay (beta-klotho [4]): 26 nM
